Measurements from patent publication US20060110796A1.

What was measured:
[1] = molecular target: glycomyoglobin with GalNAc-α-threonine at position 4 (myoglobin 4TAG mutant, C-terminal 6xHis tag) (UniProt P02185); assay: enzyme-linked lectin-binding assay (ELLA); 600 ng myoglobin on plate, biotinylated lectin 10 µg/mL, streptavidin-AP, pNPP, 405 nm; reference is an equivalent concentration of tyrosine-myoglobin
[2] = molecular target: glycomyoglobin with β-GlcNAc-serine at position 4 (Gly4TAG mutant myoglobin, C-terminal His6 tag) (UniProt P02185); assay: ELISA-like lectin binding assay; 200 ng myoglobin immobilized, biotinylated BSII, streptavidin-alkaline phosphatase, pNPP, A405
Chain of glycomyoglobin with β-GlcNAc-serine at position 4 (Gly4TAG mutant myoglobin, C-terminal His6 tag) (P02185 other isoform, or with tags, fused parts or gaps mutant): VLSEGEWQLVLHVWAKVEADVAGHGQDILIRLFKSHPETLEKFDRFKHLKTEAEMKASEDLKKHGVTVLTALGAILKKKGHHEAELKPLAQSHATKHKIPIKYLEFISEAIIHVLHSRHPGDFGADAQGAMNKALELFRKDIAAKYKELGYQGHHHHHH

Chain of glycomyoglobin with GalNAc-α-threonine at position 4 (myoglobin 4TAG mutant, C-terminal 6xHis tag) (P02185 other isoform, or with tags, fused parts or gaps mutant): as above
Chain of Vicia Villosa lectin (VVL), biotinylated conjugate (P56625 whole entry): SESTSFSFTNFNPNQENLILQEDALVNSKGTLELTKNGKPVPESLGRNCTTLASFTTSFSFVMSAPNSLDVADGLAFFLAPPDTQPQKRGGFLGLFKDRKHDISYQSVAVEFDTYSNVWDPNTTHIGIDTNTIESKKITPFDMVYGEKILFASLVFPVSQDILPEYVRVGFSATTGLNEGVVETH

fold signal increase for glycomyoglobin versus tyrosine-myoglobin [1]	fold signal over wild-type myoglobin [2]	Substance
10 fold		Vicia Villosa lectin (VVL), biotinylated conjugate (from UniProt P56625 1-185)
5 fold		Dolichos Biflorus lectin (DBL), biotinylated conjugate (from UniProt P05045 23-275)
	> 200 fold	Bandeiraea simplicifolia II (BSII) lectin, biotinylated
